Earlier results, collected in article PMC4289615.

Molecular target: IL-2Rβγ (intermediate-affinity IL-2 receptor) (Homo sapiens) (UniProt P14784)
UniProt P14784, sequence (P14784 27-240, chain 1 of 2): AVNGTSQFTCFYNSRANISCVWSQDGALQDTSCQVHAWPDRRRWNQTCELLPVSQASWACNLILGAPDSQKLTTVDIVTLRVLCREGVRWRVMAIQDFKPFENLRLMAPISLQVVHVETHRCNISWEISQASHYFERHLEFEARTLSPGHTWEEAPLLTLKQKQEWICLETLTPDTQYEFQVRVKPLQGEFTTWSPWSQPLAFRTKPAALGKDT
UniProt P14784, sequence (P31785 23-262, chain 2 of 2, further chain): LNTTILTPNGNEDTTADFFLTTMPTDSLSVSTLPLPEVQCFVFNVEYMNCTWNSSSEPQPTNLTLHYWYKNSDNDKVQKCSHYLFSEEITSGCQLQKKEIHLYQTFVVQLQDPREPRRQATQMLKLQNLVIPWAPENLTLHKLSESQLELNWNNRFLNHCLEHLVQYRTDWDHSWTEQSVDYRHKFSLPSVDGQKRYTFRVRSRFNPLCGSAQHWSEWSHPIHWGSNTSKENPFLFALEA

IL-2, sequence (P60568 21-153): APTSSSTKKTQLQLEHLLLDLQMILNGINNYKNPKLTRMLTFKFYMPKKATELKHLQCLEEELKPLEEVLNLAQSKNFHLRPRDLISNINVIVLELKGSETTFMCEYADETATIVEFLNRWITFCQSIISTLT

- Kd: 1 nM
Substance: IL-2 (from UniProt P60568)
